According to US20240209104A1 (SHANGHAI ACEMAB, published 2024):

T1: hOX40-EC-His (human, UniProt P43489 29-214)
T1 construct: extracellular domain; bought protein; also called recombinant human OX40 antigen protein; human OX40 extracellular segment antigen; not shown: 6 His label
T1 sequence (looked up): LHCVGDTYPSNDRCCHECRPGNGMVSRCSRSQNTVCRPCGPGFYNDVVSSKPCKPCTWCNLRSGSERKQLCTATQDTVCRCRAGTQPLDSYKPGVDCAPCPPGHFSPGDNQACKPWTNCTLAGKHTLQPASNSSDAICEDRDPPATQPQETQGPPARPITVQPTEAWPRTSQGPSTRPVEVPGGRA

T2: OX40 on OX40 over-expressed cells (UniProt P43489 29-277)
T2 construct: whole, on cells; human implied; also called OX40 expressed on the surface of OX40 expressing cell
T2 sequence (looked up): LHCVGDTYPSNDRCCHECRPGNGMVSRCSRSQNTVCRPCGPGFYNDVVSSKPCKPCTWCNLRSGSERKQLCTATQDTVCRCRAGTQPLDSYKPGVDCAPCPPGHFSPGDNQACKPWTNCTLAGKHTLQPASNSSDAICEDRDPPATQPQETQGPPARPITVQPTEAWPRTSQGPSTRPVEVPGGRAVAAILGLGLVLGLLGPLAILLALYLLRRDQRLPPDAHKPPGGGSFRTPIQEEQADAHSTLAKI


Experiments:
hOX40-EC-His [1] = target: T1, hOX40-EC-His; assay: ELISA, supernatant stoste, coated OX40 (CK60)
hOX40-EC-His [2] = target: T1, hOX40-EC-His; assay: ELISA, supernatant diluted 100 times, coated OX40 (CK60)
[3] = target: T2, OX40 on OX40 over-expressed cells; assay: flow cytometry, supernatant on OX40 over-expressed cells
Experimental: After collecting OX40 over-expressed cells by 200G centrifugation, wash them with PBS containing 3% FCS, and then resuspend them in 2.5 ml of PBS containing 3% FCS. […] Finally, the cells were resuspended in […] of PBS containing 3% FCS for detection by flow cytometry.

hOX40-EC-His [4] = target: T1, hOX40-EC-His; assay: ELISA, supernatant 1:100, coated hOX40-EC-His

450 nm light absorption (hOX40-EC-His [1]) [OD450] | 450 nm light absorption (hOX40-EC-His [2]) [OD450] | Y586 channel PE fluorescence value [3] | IgG ELISA (1:100) (hOX40-EC-His [4]) [OD650] | Binder
2.41 | 2.2 | 274000 | – | 24F10-1 (antibody, V domains shown, hybridoma antibody, tested as culture supernatant) VH: QVQLQESGPGLVKPSGNLSLTCVVSGASIINNNWWTWVRQSPGKGLEWIGEIFHSGTTNYNPSLKNRVTISVDKAKNQFSLNLKSVTAADTAVYYCVAYVSGTYYNFDYWGQGTLVTVSS VL: not shown
1.93 | 0.878 | 221000 | – | 29A9-5 (antibody, V domains shown, hybridoma antibody, tested as culture supernatant) VH: QVQLQESGPGLVKPSGTLSLTCAVFGDSISSSYWWSWVRQPPGKGLEWIGEIYHSGSTHYNPSLKSRVTISVDKSKNHLSLKLISVTDADTAVYYCAGEDTGWPFDFWGQGTLVTVSS VL: not shown
2.4 | 2.14 | 437000 | – | 24F8-7 (antibody, V domains shown, hybridoma antibody, tested as culture supernatant) VH: QVQLQESGPGLVKPSGTLSLTCAVSGGSISSYNWWSWVRQPPGKGLEWIGEIYHSGSTNYNPSLKSRVTISVDKSKNQFSLKLSSVTAADTAVYYCARDEDYYGSGNYYHWGQGTLVTVSS VL: not shown
1.87 | 1.32 | 402000 | – | 18F11-4 (antibody, V domains shown, hybridoma antibody, tested as culture supernatant) VH: QVQLQESGPGLVKPSGTLSLTCAVSGGSISSYNWWSWVRQPPGKGLEWIGEIYHSGSTNYNPSLKSRVTISVDKSKNQFSLKLSSVTAADTAVYYCARDEDYYGSGNYYHWGQGTLVTVSS VL: not shown
2.37 | 2 | 424000 | – | 21F9-12 (antibody, V domains shown, hybridoma antibody, tested as culture supernatant) VH: QVQLQESGPGLVKPSGTLSLTCAVSGGSISSYNWWSWVRQPPGKGLEWIGEIYHSGNTNYNPSLKSRVTISVDKSKNQFSLKLSSVTAADTAMYYCARDQDYYGSGNFYYWGQGTLVTVSS VL: not shown
2.51 | 2.4 | 344000 | – | 24E10-4 (antibody, V domains shown, hybridoma antibody, tested as culture supernatant) VH: QVQMQESGPGLVKPSGTLSLTCAVSGGSISSSKWWSWVRQPPGKGLEWIGEIYHSGSTNYNPSLKSRVTISIDKSKNQFSLRLTSVTAADTAVYYCARGDVLLWFGGQGTLVTVSS VL: EIVLTQSPGTLSLSPGERATLSCWASQSVSSTYLAWYQQKPGQAPRLLIYGASIRATGIPDRFSGSGSGTDFTLTISSLEPEDFAVYYCQQYGSSPITFGQGTRLEIKR
2.32 | 1.91 | 416000 | – | 26C3-4 (antibody, V domains shown, hybridoma antibody, tested as culture supernatant) VH: QVQLQESGPGLVKPSGTLSLTCDVSGGSISSSNWWSWVRQPPGKGLEWIGEIYHSGSTNYNPSLKSRVTISVDKSKNQVSLKLNSVTAADTAVYYCARGDILLWFGGQGTLVTVSS VL: not shown
2.46 | 2.32 | 475000 | – | 17D5-11 (antibody, V domains shown, hybridoma antibody, tested as culture supernatant) VH: QVQLQESGPGLVKPSETLSLTCAVSGGSINSTNWWSWVRQPPGKGLEWIGEIYHSGSTNYNPSLKSRVTISVDKSKNQFSLKLSSVTAADTAVYYCARGGAVALDYWGQGTLVTVSS VL: EIVLTQSPGPLSLSPGDRATLSCRASQTVSSSYLAWYLQKPGQAPRLLIYGASIRATGIPDRFSGSGSGTDFTLTISRLEPEDFAVYYCQQYGNSPITFGQGTRLEIKR
2.35 | 2.2 | 432000 | – | 18F5-2 (antibody, V domains shown, hybridoma antibody, tested as culture supernatant) VH: QVQMQESGPGLVKPSGTLSLICAVSGGSISSSKWWSWVRQPPGKGLEWIGEIYHSGSTNYNPSLKSRVTISIDKSKNQFSLRLTSVTAADTAVYYCARGDVLLWFGGQGTLVTVSS VL: not shown
2.27 | 2.26 | 195000 | 2.1 | 28E3-4 (antibody, V domains shown, hybridoma antibody, tested as culture supernatant) VH: QVQLQESGPGLVKPSGTLSLTCAVSGGSISRSNWWTWVRQSPGKGLEWIGEIYHSGNTNYNPSLKSRVTISLDKSKNQFSLKLSSVTAADTAVYYCASSGSLYMDVWGKGTTVTVSS VL: DIQMTQSPSSLSASVGDRVTISCRASQSTSSYLNWYQQKPGKAPRLLIYGASSLQSGVPSRFSGSGSGTDFILTISSLQPEDFATYYCQQSYSIPITFGQGTRLEIKR
2.46 | 2.36 | 388000 | – | 29B8-3 (antibody, V domains shown, hybridoma antibody, tested as culture supernatant) VH: QVQLQESGPGLVKPSGTLSLTCAVSGVSISSSNWWSWVRQPPGKGLEWIGEIYHSGNTNYNPSLKSRVTISVDKSKNQFSLKLSSVTAADTAVYYCAETSTITTNYWGQGTLVTVSS VL: DIQMTQSPSSLSASVGDRVTITCRASQTISSYLNWYQQKPGKAPKLLIYAASSLQSGVPSRFSGSESGTDFTLTISSLQPEDFATYYCQQTYSIPITFGQGTRLEIKR
2.39 | 1.26 | 187000 | 2.3 | 4D9-12 (antibody, V domains shown, hybridoma antibody, tested as culture supernatant) VH: QVQLQESGPGLVKPSGTLSLTCAVSGGSISSSNWWSWVRQPPGKGLEWIGEIYHSGNTIYNPSLKSRVTISLDKSKNQFSLKLSSVTAADTAVYYCASSGSLYMDVWGKGTTVTVSS VL: DIQMTQSPSSLLSSVGDRVTISCRASHGSSTYLNWYQQKPGKAPRLLIYGASSLQSGVPSRFSGSGFGTDFILTISSMQPEDFATYYCQQSYSIPITFGQGTRLEIKR
2.45 | 2.35 | 358000 | – | 48D10-5 (antibody, V domains shown, hybridoma antibody, tested as culture supernatant) VH: QVQLVQSGAEVKKPGASMKVSCKASGYTFANFGINWVRQAPGQGLEWMGWISAYNGYTNYAQQFQGRITMTTDTSTSTAYMELRSLRSDDTAIYYCVIWFGELLSFDYWGQGTLVTVSS VL: DIQMTQFPSSLSASVGDRVTITCRASQDISNYLAWFQQKPGKAPKSLIYAASSLQSGVPSKFSGNGFGTDFTFPLSRMQPEDFASSYCQQYNNYTFTFGRGTKVEIKR
2.03 | 1.38 | 202000 | 2.1 | 21D2-3 (antibody, V domains shown, hybridoma antibody, tested as culture supernatant) VH: QVQLVESGGGLVKPGGSLRLSCAASGFTFSDYYMSWIRQAPGKGLEWVSYISSSGTTIYCADSVKGRFTISRDNAKNSLYLQMNSLRAEDTAVYYCARDSSTWYEGNYFDYWGQGTLVTVSS VL: not shown
2.58 | 2.61 | 171000 | 1.9 | 21F3-11 (antibody, V domains shown, hybridoma antibody, tested as culture supernatant) VH: QVQLQESGPGLVKPSGTLSLTCAVSGGSISSSNWWSWVRQPPGKGLEWIGEIYHGGSTNYNPSLKSRITISVDKSKNQFSLKLSSVTAADTAMYYCATLPGYSSGWFDSWGQGTLVTVSS VL: EIVLMQSPGTLSLSPGERATLSCRASQSVSSSYLAWYQQKPGQAPSLLIYGASNRASGIPDRFSGSGSGTDFTLTITRLEPEDFAVYYCQQYGSSPLTFGGGTRVEIKR
3.81 | 2.32 | 540000 | – | 20D2-12 (antibody, V domains shown, hybridoma antibody, tested as culture supernatant) VH: QVQLVESGGGLVKPGGSLRLSCAASGFTFSDYYMSWIRQAPGRGLEWISYISGSDSTIYYEDSVMGRFTISRDNAKNSLYLQMNSLRAEDTAVYYCARDRDVYGYSGYGYFDYWGQGTLVTVSS VL: EIVLTQSPGTLSLSPGERATLSCRASQSVSSRYLAWYQQKPGQAPRLLIYGASNRATGMPDRFSGSGSGTDFTLTISRLEPEDFAVYYCQQYGSSPITFGQGTRLEIKR
2.81 | 2.8 | 343000 | – | 24A12-12 (antibody, V domains shown, hybridoma antibody, tested as culture supernatant) VH: QVQLQESGPGLVKPAGTLSLTCAVSGGSISSSNWWNWVRQPPGKGLEWIGEIYHSGSTNYNPSLKSRVTISVDTSKNQFSLKLTSVTAADTAVYYCARTGPTVTTDYWGQGTLVTVSS VL: EIVLTQSPGTLSLSPGERATLSCRASQSVSSSYLAWYQQKPGQAPRLLIYGASYRATGMPERFSGSGSGTDFTLTISRLEPEDFAIYYCQQYGRSPLTFGGGTKVEIKR
2.25 | 1.4 | 181000 | – | 15A7-6 (antibody, V domains shown, hybridoma antibody, tested as culture supernatant) VH: QVQLQESGPGLVKPSGTLSLTCAVSGGSINSSSWWSWVRQPPGKGLEWIGEIYHSGDTNYNPSLKSRVAISVDKSKNQFSLKLSSVTAADTAVYYCARDQADYFGSGNYVYWGQGTLVTVSS VL: EIVLMQYPGTLSLSSGERRVLSCRPSQSVSSSYLAWYQQKPGQAPRLLIYGASSRASGIPDRFSGSGSGTDFTLTISRLEPEDFAVYYCQQYGSLPITFGQGTRVEIKR
